± gives the standard error. Fewer inactive variants are shown than the library holds.
B1: glmS ribozyme (parent)
chain: AUAAAAGCGCCAGAACUACAGAAAUGUAGUUGACGAGGAGGAGGUUUAUCGAAUUUUCGGCGGAUGCCUCCAAA

Variants of: B1
Assay: self-cleavage kobs at 2500 uM GlcN6P; higher = faster cleavage; RNA array
Conditions: with glucosamine-6-phosphate
How it was run: (§1)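 Weighted Michaelis–Menten fits across concentrations supplied kcat and KM, based on kobs from one- or two-exponential decay fits to normalised per-tile medians. The data came from barcoded ribozyme variants transcribed in situ by E. coli RNA polymerase on sequenced MiSeq chips and tracked at 37 °C by a hybridised Cy3 probe. Glucosamine-6-phosphate (40 μM to 10 mM) in HEPES/KCl/Mg(OAc)2 buffer was flowed in.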

| Variant | self-cleavage kobs at 2500 uM GlcN6P [s⁻¹] |
| --- | --- |
| C10U G29U C61A C67G | 0.000121 ± 2.9e-05 |
| C16U G37U A42G | < 1e-05 |
| A39U U56C C67G | 3.66e-05 ± 9.2e-06 |
| A15C G66U C67G | 4.27e-05 ± 1.7e-05 |
| U55A U56A A64G | 0.0035 ± 0.00087 |
| G29A U31G U54G | 6.58e-05 ± 3.2e-05 |
| C11U A14G A33G C68A C71A | 0.000684 ± 0.00034 |
| G29C C34U G35A G40U G59C | < 1e-05 |
| G13A G35A G44A | < 1e-05 |
| A42G G51C G60C C68G | < 1e-05 |
| A15C C16G U31A A53G C58A | 4.06e-05 ± 1.5e-05 |
| C10G A39G G66A C67U C71G | 7e-05 ± 3.1e-05 |
| C16U C50G U55C | 7.17e-05 ± 2.1e-05 |
| G9C A15G U45G | < 1e-05 |
| A6U G32U U57G | < 1e-05 |
| C34U U54G G63U | < 1e-05 |
| A15G G37U C61A C68A C70G | 4.28e-05 ± 2e-05 |
| G9C A39U U45C C58U | < 1e-05 |
| A12C G38C C71U | < 1e-05 |
| C16G U49G U55A | 5.61e-05 ± 2.1e-05 |
| A6U A52G U69C | 5.25e-05 ± 2.2e-05 |
| C16G U30C G32C C58G | 5.09e-05 ± 2.2e-05 |
| G7A C11U U45C | < 1e-05 |

| Variant | self-cleavage kobs at 2500 uM GlcN6P [s⁻¹] |
| --- | --- |
| C11G G13U G29C | < 1e-05 |
| A12U G43U C50U G59A | < 1e-05 |
| C8G A52G U55G C67G C68U | 5.08e-05 ± 1.6e-05 |
| A39C G41C G66U | < 1e-05 |
| G7C C11A G60C | < 1e-05 |
| G29U G32A A53C | 0.000152 ± 3e-05 |
| U45A U46A | 0.0043 ± 0.0021 |
| A6U G44A A48U G63A U65C | < 1e-05 |
| U54A C67A C68U | 9e-05 ± 2.1e-05 |
| G7C G29A G62U | < 1e-05 |
| A14G U45A U69A | 0.000801 ± 0.00024 |
| A6U G41U G59A G62C | < 1e-05 |
| C10U A12C G66A | 3.37e-05 ± 1.5e-05 |
| G13C G41A U45A C70U | 8.8e-05 ± 2e-05 |
| C11G G35A C61A | < 1e-05 |
| G13U G43U C61G | < 1e-05 |
| A6U U31G A36U | < 1e-05 |
| C16G C50U A53C C68G | 0.000113 ± 4.6e-05 |
| C50G U57C C71G | 0.000255 ± 0.00012 |
| G32U U57A C61A | < 1e-05 |
| A14U A15G G32U U57G U69A | 0.000285 ± 0.00012 |
| U31A A52U | 2.52e-05 ± 1.1e-05 |
| C16U U47A C58G | 2.28e-05 ± 1.1e-05 |

| Variant | self-cleavage kobs at 2500 uM GlcN6P [s⁻¹] |
| --- | --- |
| A12U U31G C58G | 7.42e-05 ± 2.7e-05 |
| G29A U30C A48U C58U | < 1e-05 |
| C10U G29U A39G U57C C71A | < 1e-05 |
| G13A A36G C58G C68G | 0.000157 ± 5.4e-05 |
| A12G G21U U47G U65A | 6.16e-05 ± 1.7e-05 |
| G32C G37U C70G | 9.68e-05 ± 4.2e-05 |
| G38A C50A A64C | < 1e-05 |
| G29U G40A U65A | 3.42e-05 ± 1.6e-05 |
| A15C A36C A48U | < 1e-05 |
| A14G G60U G66A | < 1e-05 |
| G29C U30G A39G | 0.00224 ± 0.00066 |
| C10U C11U A36C A42U A48C | < 1e-05 |
| G40U G44A U55C C67U | < 1e-05 |
| C8A C16G G38A A64G C68A | < 1e-05 |
| U55A A64C C71U | 7.29e-05 ± 3.2e-05 |
| C10A G35U A48C | < 1e-05 |
| G32U G35C U46G | < 1e-05 |
| G9A A12C G59C | < 1e-05 |
| C10G A12G U47G U54C C68U | < 1e-05 |
| C8G A33U U56G G59U | < 1e-05 |
| A15C A42G U56A G60U | < 1e-05 |
| G44A A52U G60U | < 1e-05 |
| C16U U46C C61G | < 1e-05 |

| Variant | self-cleavage kobs at 2500 uM GlcN6P [s⁻¹] |
| --- | --- |
| G32A U69C | 0.000191 ± 7.8e-05 |
| A6G G13C U65A U69C | < 1e-05 |
| C16U U57A G59C | < 1e-05 |
| G38A U45C A52U | < 1e-05 |
| U30C U47A C70A | 8.14e-05 ± 3.8e-05 |
| A14U G40U G60A C70G C71U | < 1e-05 |
| C34U A39C C68U | < 1e-05 |
| A15U U31G G40A | 0.000101 ± 2.5e-05 |
| C34G U47C G66A | < 1e-05 |
| G37U G38U U49C G59A | < 1e-05 |
| C10U A33G A39G G41C C67U | < 1e-05 |
| C34A G35C A39G G44U C67A C71G | < 1e-05 |
| C34U C50A U69C | 0.000135 ± 6.7e-05 |
| G7U C11U G51C | < 1e-05 |
| A52U U56A C58G | < 1e-05 |
| A6U A14U U31C A42G A52C A64C | < 1e-05 |
| G38U G40U C70A | < 1e-05 |
| A33G A36G A52U | < 1e-05 |
| A12G U54A C68G | 5.86e-05 ± 1e-05 |
| C11A G35U C58G | < 1e-05 |
| A39C A42C G66A | 0.00014 ± 4.5e-05 |
| U30G G63C A64U | < 1e-05 |
| G7A G9A A14C G44A | < 1e-05 |

| Variant | self-cleavage kobs at 2500 uM GlcN6P [s⁻¹] |
| --- | --- |
| C10U G51U G60U | < 1e-05 |
| C8A G13U U56G A64G | < 1e-05 |
| A52G U54G C68G | 7.13e-05 ± 2.9e-05 |
| A14U U47C C61G | < 1e-05 |
| G44U U56C U57A | < 1e-05 |
| A39C U47A G66C | 0.000411 ± 8.5e-05 |
| G13A A15U C58G U65G C70G | 7.13e-05 ± 3.5e-05 |
| U30A G32C A39G | 9.38e-05 ± 3.4e-05 |
| A33G A42U C70U | < 1e-05 |
| G38C U46G C68G | < 1e-05 |
| C11A C16U A23C A39G U54C C58U | < 1e-05 |
| C34G U57G C70G | 0.00021 ± 4.8e-05 |
| A12G U56G G66A | 0.000134 ± 2.5e-05 |
| U47G C58A G59U C70G | 0.000334 ± 9.7e-05 |
| G44U U45A U47A | 0.000474 ± 0.0002 |
| G13U A33G U45C G63A | < 1e-05 |
| C10U C11G U57A | < 1e-05 |
| A52U U54A C67U | 0.000187 ± 5.3e-05 |
| U45G A48U U55C | 8.04e-05 ± 2.8e-05 |
| A12G A33G G41C G66A | < 1e-05 |
| G38U G43A U47C C67U | < 1e-05 |
| G32U A48U G51C | < 1e-05 |
| A12G A36C C70U | < 1e-05 |

| Variant | self-cleavage kobs at 2500 uM GlcN6P [s⁻¹] |
| --- | --- |
| G35U U56A C71U | < 1e-05 |
| G40A U55C C58G | < 1e-05 |
| G40C U47A U65G | 0.000652 ± 0.00017 |
| A15U C16U U49A C70G | 4.48e-05 ± 1.7e-05 |
| G9C G40U C67U | < 1e-05 |
| C34U G60A C68U | < 1e-05 |
| C19A C34U U45A A48U | < 1e-05 |
| G40A U47A U49A C70A | < 1e-05 |
| A12G A64U C67G | < 1e-05 |
| G35U A36G U45C U65G | < 1e-05 |
| G37A A64C C67G | < 1e-05 |
| G32A A33U G51U | < 1e-05 |
| A15C A64C C68U | < 1e-05 |
| C16A A33C G40A U56C C67U | < 1e-05 |
| U31A C34A C71U | < 1e-05 |
| G7U A42C A64U G66U | < 1e-05 |
| A12U A39U A48U | 0.000147 ± 2.7e-05 |
| U45G A52U G63C | < 1e-05 |
| A39C U57A C67G | < 1e-05 |
| G51A U56C C70G | < 1e-05 |
| A14U U45G U47A U54C G62U | < 1e-05 |
| G7C G9A A14U C50A | < 1e-05 |
| C11G G13C C50A A53G U55A | < 1e-05 |

| Variant | self-cleavage kobs at 2500 uM GlcN6P [s⁻¹] |
| --- | --- |
| G9C A42C A52C G66C | < 1e-05 |
| C8G G9U C16A A53C | < 1e-05 |
| G7A C8G G63U | < 1e-05 |
| G7U G9A C67A | < 1e-05 |
| G13U G38A U55A A64U | < 1e-05 |
| C8G A36G G38A A52G U65G U69G | 5.4e-05 ± 1.8e-05 |
| A52U U57A C67U | 0.000441 ± 9.6e-05 |
| C8A A33C U45C G59A | < 1e-05 |
| A36U U55C C70G | < 1e-05 |
| A33U G37A U55A C61U | < 1e-05 |
| G9U U31C G43C C67U | < 1e-05 |
| A12U C34A A48U | < 1e-05 |
| G29U A36G A42G G43C G62U U65C U69C | < 1e-05 |
| U46G C61U A64G | < 1e-05 |
| A14C G32A C67G | 6.42e-05 ± 1.9e-05 |
| U54G C61U C70U | 5.89e-05 ± 1.4e-05 |
| G13C G59A G66A C68U | < 1e-05 |
| A14U G29U C50G C68U | 0.000156 ± 3.8e-05 |
| A14C C16U C68G | 9.4e-05 ± 2.8e-05 |
| G9C G37U C58U G62U A64U C70G | < 1e-05 |

Variants of: B1
Assay: self-cleavage kobs at 10000 uM GlcN6P; higher = faster cleavage; RNA array
Conditions: with glucosamine-6-phosphate
How it was run: as §1

| Variant | self-cleavage kobs at 10000 uM GlcN6P [s⁻¹] |
| --- | --- |
| A15C G66U C67G | 0.000165 ± 4.9e-05 |
| G29C C34U G35A G40U G59C | < 1e-05 |
| C34U U54G G63U | < 1e-05 |
| C8G A52G U55G C67G C68U | 3.18e-05 ± 1.4e-05 |
| G29U G32A A53C | 0.000364 ± 0.0001 |
| A6U U31G A36U | < 1e-05 |
| C50G U57C C71G | 9.26e-05 ± 3.1e-05 |
| U31A A52U | 8.67e-05 ± 1.5e-05 |
| G32A U69C | 0.000717 ± 0.00016 |
| C10U A33G A39G G41C C67U | < 1e-05 |
| A33G A36G A52U | < 1e-05 |
| U30G G63C A64U | < 1e-05 |
| C10U G51U G60U | < 1e-05 |
| C10U C11G U57A | < 1e-05 |
| A12G A64U C67G | < 1e-05 |
| G35U A36G U45C U65G | < 1e-05 |
| A52U U57A C67U | 0.000894 ± 0.0002 |
